Consider two molecules from patent US20200332017A1 (SALUBRIS CHENGDU BIOTECH, published 2020).

For orientation: Kd means the free concentration of one partner at which half of the binding sites on the other are occupied at equilibrium, for simple one-to-one binding. As a reminder, the EC50 is the concentration at which the effect is half-maximal. Read a low EC50 as higher potency in that assay.

For test [1], the target named is T1, human CD40-Fc protein (amino acid residue 21-193 of SEQ ID NO: 67 linked to N-terminus of amino acid residue … (human, biotin-labeled in the capture ELISA and in the benchmark blocking ELISA; unlabeled when coated in the ligand blocking ELISA).
T1 construct: also called biotin-labeled human CD40-Fc; human CD40-Fc-biotin
Put plainly: capture ELISA, biotin human CD40-Fc; mAb at 80 ng/mL. On the procedure: (§1) Plates were washed 4 times with wash buffer (PBS+0.05% Tween-20, PBST) and then blocked with 200 μl/well blocking buffer (5% w/v non-fatty milk in PBST) for 2 hours at 37° C. […] After a final wash, plates were incubated with 100 μl/well ELISA substrate TMB (Innoreagents, Cat # TMB-S-002). The reaction was stopped in 15 minutes at 25° C. with 50 μl/well 1M H₂SO₄, and the absorbance was read at 450 nm and plotted against antibody concentration. Data were analyzed using Graphpad Prism software and EC₅₀ values were reported.

The target in test [2] is T1, human CD40-Fc protein (amino acid …). Kind of test: capture ELISA, biotin human CD40-Fc; mAb at 0 ng/mL (blank). On the procedure: as §1
Test [3] shares this target. Put plainly: benchmark blocking ELISA: BM2 (Selicrelumab) coated as competitor, antibody titrated in biotin-labeled human CD40-Fc solution, streptavidin-HRP, OD(450-630). On the procedure:
The ability of the mouse anti-CD40 antibodies of the present invention to block the binding of the Benchmark to human CD40 was measured using a competitive ELISA assay. […] The next day, plates were washed with wash buffer, and blocked with 5% w/v non-fatty milk in PBST for 2 hours at 37° C. Plates were then washed again using wash buffer. […] After incubation at 37° C. for 40 minutes, plates were washed 4 times using wash buffer. Then streptavidin conjugated HRP was added and incubated for 40 minutes at 37° C. to detect biotin-labeled human CD40-Fc bound to plates. Plates were washed again using wash buffer. Finally, TMB was added and the reaction was stopped using 1M H₂SO₄, and the absorbance was read at 450 nm. Data were analyzed using Graphpad Prism software and IC₅₀ values were reported.
(In an ELISA, binding on a coated surface is turned into a signal by an enzyme label.)

Test [4] deals with T2, Human CD40-his protein (Acro biosystems, Cat # CD0-H5228) (human, UniProt P25942 21-193).
T2 construct: Bought reagent; not shown: his tag
Put plainly: SPR, Biacore; human CD40-his. The text has this:
Briefly, goat anti-mouse IgG (GE healthcare, Cat # BR100838, Mouse Antibody Capture Kit) was covalently linked to a CM5 or a Protein G chip (carboxy methyl dextran coated chip) via primary amines, using a standard amine coupling kit provided by Biacore (GE healthcare, Pittsburgh, Pa., USA). Un-reacted moieties on the biosensor surface were blocked with ethanolamine. […] Then, human CD40-his (Acro biosystems, Cat # CD0-H5228) or cynomolgus monkey CD40-his protein (Acro biosystems, Cat # CD0-052H6) in HBS EP buffer (provided by Biacore) was flowed onto the chip at a flow rate of 30 μL/min. The antigen-antibody association kinetics was followed for 2 minutes and the dissociation kinetics was followed for 10 minutes. The association and dissociation curves were fit to a 1:1 Langmuir binding model using BIA evaluation software.
(In general: In SPR one partner is held on a chip, and binding of the other changes the refractive index at the surface.)

Test [5] deals with T1, human CD40-Fc protein (amino acid …). Kind of test: capture ELISA, biotin human CD40-Fc; mAb at 10000 ng/mL. On the procedure:
as §1

The target of test [6] is T3, full length human CD40 (uniprot # P25942-1) on the membrane of 293T-CD40 cells (human, UniProt P25942 21-277).
T3 construct: also called cell surface CD40
Kind of test: flow cytometry on 293T-CD40 cells. On the procedure: 2×10⁵ cells per well in 96 well-plates were incubated with the mouse anti-CD40 antibodies or the controls of various concentrations in FACS buffer for 40 minutes on ice. […] Following an incubation of 40 minutes at 4° C. in dark, cells were washed three times and resuspended in FACS buffer. Fluorescence was measured using a Becton Dickinson FACS Canto II-HTS equipment and plotted against antibody concentration.
(A flow cytometer gives signals particle by particle.)

Test [7] concerns the target T3, full length human CD40 (uniprot # …). Kind of test: cell-based or functional assay.
Test [8] concerns the target T1, human CD40-Fc protein (amino acid …). Put plainly: capture ELISA, biotin human CD40-Fc; mAb at 2000 ng/mL. On the procedure:
as §1

For test [9] the target is unchanged. Put plainly: capture ELISA; antibody captured, biotin-labeled human CD40-Fc in solution. On the procedure:
as §1
In the capture ELISA test, a mouse control antibody targeting a protein other than CD40 was used.

B1: mouse anti-CD40 monoclonal antibody C1C1 (antibody, V domains shown)
VH: EVKLVESGGGLVKPGASLKLSCAASGFTFSNYGMSWVRQNSDKRLEWVASISSGGDDTYYPDNVKGRCTISRENAKNTLYLEMSSLKTEDTALYYCTRAGGKAMDYWGQGTSVTVST
VL: DIVLTQSPATLSVIPGNSVSLSCRASQSIRDNLHWYQQKSHESPRLLINYASQSISGIPSRFSGSGSGTDFTLTINSVETEDFGIYFCQQFNSWPLTFGGGTKLELK
notes: those are used here for the chimeric antibody only; also called Mouse C1C1; mouse C1C1
Take B1: the “absorbance at 450 nm” value in [1] stood at 1.48 OD450; in [2], 0.124 OD450; in [5] it was 1.81 OD450; in test [8], 1.75 OD450. In test [3], the “IC50 (read off the curve)” value was about 0.5 nM. In addition, the dissociation constant Kd in test [4] came to 3.62 nM. Further, the concentration giving a half-maximal response (EC50) in test [6] was found to be 1.86 nM; in test [9], 0.192 nM. Moreover, in [7], the “cell based functional assay (EC50, nM)” value was 2.51 nM.

B2: chimeric antibody C1C1 (antibody, human IgG1, kappa, V domains shown)
VH: B1 VH
VL: DIVLTQSPATLSVIPGNSVSLSCRASQSIRDNLHWYQQKSHESPRLLINYASQSISGIPSRFSGSGSGTDFTLTINSVETEDFGIYFCQQFNSWPLTFGGGTKLELKR
notes: also called chC1C1; chimeric C1C1
For B2, the “absorbance at 450 nm” value worked out at 1.17 OD450 in test [1], 0.028 OD450 in [2], 1.96 OD450 in [5] and 1.83 OD450 in test [8]. In [3], the “IC50 (read off the curve)” value is about 0.02 µg/mL. Also, the Kd in [4] was found to be 5.98 nM. The EC50 in test [6] came out at 1.82 nM; in [9], 0.24 nM. In addition, in test [7], the “cell based functional assay (EC50, nM)” value amounted to 3.28 nM.
